Data reported in the Immune Epitope Database (IEDB).
pIC50, pKd: −log10 of the molar value.

How the values were obtained:
[1] = target: HLA-A*02:01; experiment: IEDB peptide-MHC binding, purified MHC/competitive/fluorescence; ≥ and ≤ were set here for values at or beyond the usual limits of such assays
[2] = target: HLA-B*58:01; experiment: IEDB peptide-MHC binding, purified MHC/direct/fluorescence; filed as Kd, often an IC50 or EC50 that approximates it; ≥ and ≤ were set here for values at or beyond the usual limits of such assays
[3] = target: HLA-A*11:01; experiment: as above; conditions: source organism: Yellow fever virus
[4] = target: HLA-A*69:01; experiment: as above
[5] = target: HLA-B*07:02; experiment: as above; conditions: source organism: Homo sapiens
[6] = target: HLA-A*30:01; experiment: IEDB peptide-MHC binding, purified MHC/competitive/radioactivity; filed as Kd, often an IC50 or EC50 that approximates it; ≥ and ≤ were set here for values at or beyond the usual limits of such assays
[7] = target: HLA-A*03:01; experiment: as above; conditions: source organism: Dengue virus 1 Brazil/97-11/1997
[8] = target: HLA-A*11:01; experiment: as above; conditions: source organism: Dengue virus 1 Brazil/97-11/1997
[9] = target: HLA-A*02:01; experiment: IEDB peptide-MHC binding, purified MHC/competitive/fluorescence; filed as Kd, often an IC50 or EC50 that approximates it; ≥ and ≤ were set here for values at or beyond the usual limits of such assays
[10] = target: HLA-A*24:02; experiment: IEDB peptide-MHC binding, purified MHC/competitive/radioactivity; filed as Kd, often an IC50 or EC50 that approximates it; ≥ and ≤ were set here for values at or beyond the usual limits of such assays; conditions: source organism: Dengue virus 1 Nauru/West Pac/1974
[11] = target: HLA-B*15:01; experiment: IEDB peptide-MHC binding, purified MHC/direct/fluorescence; filed as Kd, often an IC50 or EC50 that approximates it; ≥ and ≤ were set here for values at or beyond the usual limits of such assays; conditions: source organism: Homo sapiens
[12] = target: HLA-A*02:03; experiment: IEDB peptide-MHC binding, purified MHC/competitive/radioactivity; filed as Kd, often an IC50 or EC50 that approximates it; ≥ and ≤ were set here for values at or beyond the usual limits of such assays; conditions: source organism: Vaccinia virus WR
[13] = target: HLA-A*02:06; experiment: as above; conditions: source organism: Vaccinia virus WR
[14] = target: HLA-A*02:02; experiment: as above; conditions: source organism: Vaccinia virus WR
[15] = target: HLA-A*02:01; experiment: IEDB peptide-MHC binding, purified MHC/direct/fluorescence; filed as Kd, often an IC50 or EC50 that approximates it; ≥ and ≤ were set here for values at or beyond the usual limits of such assays
[16] = target: HLA-A*26:01; experiment: as above; conditions: source organism: Mycobacterium tuberculosis
[17] = target: HLA-A*26:01; experiment: IEDB peptide-MHC binding, purified MHC/competitive/radioactivity; filed as Kd, often an IC50 or EC50 that approximates it; ≥ and ≤ were set here for values at or beyond the usual limits of such assays; conditions: source organism: Dengue virus 1 Brazil/97-11/1997
[18] = source organism: Vaccinia virus WR
[19] = source organism: Zaire ebolavirus
[20] = source organism: West Nile virus
[21] = source organism: Sudan ebolavirus
[22] = source organism: Mycobacterium tuberculosis
[23] = source organism: Giardia lamblia ATCC 50803

Sequence	pKd [12]	pKd [13]	pKd [14]	other results
RLDGTTLEV	–	–	–	pIC50 ([1]; source organism: Mycobacterium leprae): 7.46
RLKVFLPNP	–	–	–	pIC50 ([1]; source organism: Variola virus): 5.03
RLVDSIGSW	–	–	–	pKd ([2]; source organism: Influenza A virus (A/swine/IDT/Bakum1832/2000(H1N2))): 6.89
RMGERQLQK	–	–	–	pKd [3]: 7.53
RPASAGAML	–	–	–	pKd ([4]; source organism: Homo sapiens): 5.08; pKd [5]: 7.47
RSLKAFFSW	–	–	–	pKd ([2]; source organism: Mammarenavirus machupoense): 7.53
RTHTALIFL	–	–	–	pKd [6, 18]: 9.15
RTRDLFIAL	–	–	–	pKd [6, 18]: 9.97
RYRCSFAVA	–	–	–	pKd [6, 18]: 11.42
SAMVQVHSQ	–	–	–	pIC50 [1, 19]: ≤ 3.22
SILLSSLLK	–	–	–	pKd ([6]; source organism: Dengue virus 1 Brazil/97-11/1997): 5.67; pKd [7]: 8.10; pKd [8]: 7.71
SLARGFPFV	–	–	–	pKd [9, 20]: 8.91; pKd [4, 20]: ≥ 9.00
SNGLITSTV	–	–	–	pIC50 [1, 21]: 4.22
SYTQVCDHRL	–	–	–	pKd [10]: 6.03
TGVGKTSQV	–	–	–	pIC50 ([1]; source organism: Variola virus): 4.44
TLFKIDNNT	–	–	–	pIC50 [1, 21]: 4.73
TSSDPGTNT	–	–	–	pIC50 [1, 19]: ≤ 3.60
TVVPLMAFL	–	–	–	pKd ([9]; source organism: Bacillus cereus G9241): 7.31
VGYVDDTQF	–	–	–	pKd ([2]; source organism: Homo sapiens): 6.68; pKd [11]: 6.24; pKd [5]: 5.21
VIVPDIKLDA	≤ 4.67	6.05	≤ 4.47	–
VLPPEINSL	–	–	–	pKd [15, 22]: 7.15

Sequence	pKd [12]	pKd [13]	pKd [14]	other results
VLQQVSNGV	–	–	–	pKd [4, 22]: ≤ 4.70
VLTSVDIET	4.95	7.86	6.42	–
VMPEKRNVVV	6.52	≤ 4.56	5.45	–
VSTAVAALF	–	–	–	pKd ([2]; source organism: Mycobacterium tuberculosis F11): 7.49
VTLNRIKIA	6.39	6.20	4.88	–
VTPEYIKDL	≤ 4.11	5.75	4.98	–
VTSPLTGNNT	5.60	5.29	5.84	–
VTTLGLPFY	–	–	–	pKd [16]: 4.89
VTYNIKPVIV	6.94	6.45	5.31	–
WLKDSAIMV	7.55	5.64	6.72	–
WVMDTLNGIM	6.71	6.89	5.88	–
YASLTTIGTI	6.40	7.08	5.20	–
YFLESNFFI	–	–	–	pKd [4, 23]: 8.66; pKd [15, 23]: 9.22
YGLVSKFMS	–	–	–	pIC50 [1, 18]: 4.59
YLGIFKNNDV	7.77	6.55	7.83	–
YLPEVISTIA	9.02	7.75	7.96	–
YLSDSDNIKI	6.96	6.04	7.79	–
YQNEVTPEYI	9.68	8.59	8.56	–
YVGDLCGSV	–	–	–	pIC50 ([1]; source organism: Hepatitis C virus genotype 1): ≤ 4.30
YVKFIYFIK	–	–	–	pKd [6, 18]: 7.22
YVVIGLLFM	–	–	–	pKd [17]: 4.90
